Results reported in the supplement of paper PMC7877785.
± gives the uncertainty stated by the source.

Experiment: self-splicing fitness, log relative to wild type (ln ratio); higher = more splicing; Tetrahymena group I intron in knt gene, E. coli kanamycin selection, DiMSum; sequences stand for … in CUCUCU…GGAGGGAAAAGUUAUCAGGCAUGCACCUGGUAGCUAGUCUUUAAACCAAUAGAUUGCAUCGGUUUAAAAGGCAAGACCGUCAAAUUGCGGGAAAGGGGUCAACAGCCGUUCAGUACCAAGUCUCAGGGGAAACUUUGAGAUGGCCUUGCAAAGGGUAUGGUAAUAAGCUGACGGACAUGGUCCUAACCACGCAGCCAAGUCCUAAGUCAACAGAUCUUCUGUUGAUAUGGAUGCAGUUCACAGACUAAAUGUCGGUCGGGGAAGAUGUAUUCUUCUCAUAAGAUAUAGUCGGACCUCUCCUUAAUGGGAGCUAGCGGAUGAAGUGAUGCAACACUGGAGCCGCUGGGAACUAAUUUGUAUGCGAAAGUAUAUUGAUUAGUUUUGGAGUACUCGUGGUCG
Outline: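 Colonies from six replicate transformations of E. coli BL21(DE3) were pooled and amplicon-sequenced on an Illumina HiSeq 2500. The library placed an intron with all eight P1ex-region nucleotides randomised inside the knt kanamycin-resistance gene on pET-22b(+), and cells grew overnight at 37°C or 30°C on LB agar with or without 25 μg/mL kanamycin (plus 100 μg/mL carbenicillin, 50 μM IPTG, 0.2% rhamnose). Fitness is the DiMSum error-weighted combination of wild-type-normalised replicate fold changes, kanamycin versus none.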

Row | Sequence | self-splicing fitness (ln) (30 °C) | self-splicing fitness (ln) (37 °C)
1 | AUGCAGCAAUAUUACGUUUG | -3.45 ± 0.17 | -1.82 ± 0.17
2 | AUUAAGCAAUAUUACGUGCC | -0.626 ± 0.096 | -1.07 ± 0.14
3 | AUAAAGCAAUAUUACGGCAA | 0.284 ± 0.085 | -0.0372 ± 0.11
4 | UACUAGCAAUAUUACGCAUG | -1.72 ± 0.099 | -0.591 ± 0.12
5 | CGACAGCAAUAUUACGCACG | -3.74 ± 0.4 | -2.31 ± 0.35
6 | AGUGAGCAAUAUUACGCACA | -1.35 ± 0.1 | -0.91 ± 0.13
7 | CUUCAGCAAUAUUACGCGCA | -1.93 ± 0.29 | 0.383 ± 0.28
8 | UUCAAGCAAUAUUACGGGGU | -3.57 ± 0.21 | -3.15 ± 0.25
9 | GUGGAGCAAUAUUACGCGGA | – | -1.85 ± 0.24
10 | UGUGAGCAAUAUUACGCUGU | -3.47 ± 0.18 | -2.66 ± 0.19
11 | AGAAAGCAAUAUUACGCAGC | -2.92 ± 0.2 | -2.33 ± 0.2
12 | CUUUAGCAAUAUUACGAUUA | – | -1.92 ± 0.31
13 | UGUAAGCAAUAUUACGGUCU | -0.465 ± 0.089 | -0.33 ± 0.11
14 | UCACAGCAAUAUUACGAAAG | -3.82 ± 0.25 | -2.73 ± 0.23
15 | AACGAGCAAUAUUACGACUC | -1.14 ± 0.064 | -0.414 ± 0.081
16 | AGAAAGCAAUAUUACGAUUA | -0.175 ± 0.12 | -0.183 ± 0.15
17 | CCAGAGCAAUAUUACGAAAG | -2.45 ± 0.2 | -1.47 ± 0.17
18 | GCGUAGCAAUAUUACGUUCU | -2.08 ± 0.13 | -1.38 ± 0.15
19 | AUCCAGCAAUAUUACGUGUG | -1.79 ± 0.057 | -0.983 ± 0.06
20 | UAAGAGCAAUAUUACGUUCC | – | -1.98 ± 0.39

Row | Sequence | self-splicing fitness (ln) (30 °C) | self-splicing fitness (ln) (37 °C)
21 | UCCGAGCAAUAUUACGGAUG | -4.09 ± 0.35 | -1.77 ± 0.2
22 | AUUCAGCAAUAUUACGUCUA | -0.634 ± 0.11 | -0.557 ± 0.1
23 | CCGGAGCAAUAUUACGAUUA | -3.79 ± 0.37 | -1.17 ± 0.3
24 | CGUUAGCAAUAUUACGGCUG | -0.2 ± 0.093 | -0.439 ± 0.12
25 | UAUCAGCAAUAUUACGGCAG | -0.148 ± 0.075 | 0.0916 ± 0.089
26 | UGACAGCAAUAUUACGGGUU | -4.59 ± 0.41 | -2.79 ± 0.2
27 | AAGAAGCAAUAUUACGCUAU | -3.04 ± 0.17 | -1.44 ± 0.17
28 | CCUCAGCAAUAUUACGGGCC | -4.31 ± 0.3 | -2.77 ± 0.36
29 | CUCUAGCAAUAUUACGUCUC | -3.06 ± 0.23 | -1.81 ± 0.29
30 | GUCCAGCAAUAUUACGCCGA | -1.78 ± 0.22 | -2.03 ± 0.14
31 | CAGAAGCAAUAUUACGGAUC | -1.26 ± 0.11 | -2.62 ± 0.17
32 | CCACAGCAAUAUUACGCGCU | -4.48 ± 0.23 | -2.26 ± 0.15
33 | AAGCAGCAAUAUUACGAAAU | -2.65 ± 0.11 | -1.33 ± 0.12
34 | GCGGAGCAAUAUUACGCUCG | -2.94 ± 0.43 | –
35 | GUAAAGCAAUAUUACGGCAU | -0.176 ± 0.067 | -0.287 ± 0.078
36 | CUCGAGCAAUAUUACGUACG | -3.49 ± 0.22 | -2.86 ± 0.28
37 | CAUCAGCAAUAUUACGGACA | -0.235 ± 0.21 | -1.16 ± 0.15
38 | UUCGAGCAAUAUUACGUUGC | -2.18 ± 0.23 | -1.27 ± 0.28
39 | CUUCAGCAAUAUUACGCCGG | -2.73 ± 0.34 | –
